# Measured values: US20260308269 (published 2026)
# T1: human TfR apical domain (human)
# T1 chain: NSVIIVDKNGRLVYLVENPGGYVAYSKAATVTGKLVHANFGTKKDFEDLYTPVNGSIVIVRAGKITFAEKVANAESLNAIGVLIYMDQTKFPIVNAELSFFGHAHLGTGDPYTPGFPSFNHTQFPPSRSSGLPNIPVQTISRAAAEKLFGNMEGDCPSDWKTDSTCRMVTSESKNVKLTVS
# T2: human CD98hc (human)
# T2 chain: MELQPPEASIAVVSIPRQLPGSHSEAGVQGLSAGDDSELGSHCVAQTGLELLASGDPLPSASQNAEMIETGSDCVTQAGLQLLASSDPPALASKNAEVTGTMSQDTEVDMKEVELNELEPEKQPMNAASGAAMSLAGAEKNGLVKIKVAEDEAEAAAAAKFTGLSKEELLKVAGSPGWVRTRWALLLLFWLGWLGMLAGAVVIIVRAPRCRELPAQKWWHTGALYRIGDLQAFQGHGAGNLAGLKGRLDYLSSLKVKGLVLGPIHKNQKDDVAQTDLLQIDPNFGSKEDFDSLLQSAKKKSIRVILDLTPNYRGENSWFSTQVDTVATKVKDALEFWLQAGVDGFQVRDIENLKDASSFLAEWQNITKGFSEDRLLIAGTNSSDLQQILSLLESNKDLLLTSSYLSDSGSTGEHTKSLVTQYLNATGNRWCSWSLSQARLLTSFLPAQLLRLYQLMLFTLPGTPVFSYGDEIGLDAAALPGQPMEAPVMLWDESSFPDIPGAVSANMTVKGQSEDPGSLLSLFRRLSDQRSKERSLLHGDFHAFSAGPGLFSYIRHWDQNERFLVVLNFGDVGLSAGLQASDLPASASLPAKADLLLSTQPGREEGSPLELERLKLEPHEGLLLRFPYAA
# Molecular target: T1, human TfR apical domain
# Assay: SPR
row,Kd,Binder
1,2500 nM,TV35.d1.10 (protein) PCPAPEAAGGPSVFLFPPKPKDTLMISRTPEVTCVVVDVSHEDPEVKFNWYVDGVEVHNAKTKPREEQYNSTYRVVSVLTVLHQDWLNGKEYKCKVSNKALGAPIEKTISKAKGQPREPQVYTLPPSRDELTKNQVSLWCLVKGFYPSDIAVEWESYGTEWVNYKTTPPVLDSDGSFFLYSKLTVTKSEWQQGFVFSCSVMHEALHNHYTQKSLSLSPGK
2,8400 nM,TV35.d1.9 (protein) PCPAPEAAGGPSVFLFPPKPKDTLMISRTPEVTCVVVDVSHEDPEVKFNWYVDGVEVHNAKTKPREEQYNSTYRVVSVLTVLHQDWLNGKEYKCKVSNKALGAPIEKTISKAKGQPREPQVYTLPPSRDELTKNQVSLWCLVKGFYPSDIAVEWESYGTEWTNYKTTPPVLDSDGSFFLYSKLTVTKSEWQQGFVFSCSVMHEALHNHYTQKSLSLSPGK

# Molecular target: T1, human TfR apical domain
# Assay: SPR
# Remark: another data set of the same source
row,Kd,Binder
1,220 nM,42.2.3-1H (protein) APELLGGPSVFLFPPKPKDTLMISRTPEVTCVVVDVSHEDPEVKFNWYVDGVEVHNAKTKPREEQYNSTYRVVSVLTVLHQDWLNGKEYKCKVSNKALPAPIEKTISKAKGQPREPQVYTLPPSRDELTKNQVSLTCLVKGFYPSDIAVEWFYGNAKETNYKTTPPVLDSDGSFFLYSKLTVDKSRWQQGNLFACEVMHEALHNHYTYKLLSLSPGK
2,5960 nM,42.8.15 (protein) APELLGGPSVFLFPPKPKDTLMISRTPEVTCVVVDVSHEDPEVKFNWYVDGVEVHNAKTKPREEQYNSTYRVVSVLTVLHQDWLNGKEYKCKVSNKALPAPIEKTISKAKGQPREPQVYTLPPSRDELTKNQVSLTCLVKGFYPSDIAVEWFSGAQKESNYKTTPPVLDSDGSFFLYSKLTVDKSRWQQGNLFACEVMHEALHNHYTYKLLSLSPGK
3,840 nM,6.5.11.5.42.1 (protein) APELLGGPSVFLFPPKPKDTLMISRTPEVTCVVVDVSHEDPEVKFNWYVDGVEVHNAKTKPREEQYNSTYRVVSVLTVLHQDWLNGKEYKCKVSNKALPAPIEKTISKAKGQPREPQVYTLPPSRDELTKNQVSLTCLVKGFYPSDIAVEWFSGGAKETNYKTTPPVLDSDGSFFLYSKLTVDKSRWQQGNLFACEVMHEALHNHYTYKLLSLSPGK
4,10400 nM,42.8.17 (protein) APELLGGPSVFLFPPKPKDTLMISRTPEVTCVVVDVSHEDPEVKFNWYVDGVEVHNAKTKPREEQYNSTYRVVSVLTVLHQDWLNGKEYKCKVSNKALPAPIEKTISKAKGQPREPQVYTLPPSRDELTKNQVSLTCLVKGFYPSDIAVEWFSGAQKLTNYKTTPPVLDSDGSFFLYSKLTVDKSRWQQGNLFACEVMHEALHNHYTYKLLSLSPGK
5,924 nM,42.8.196 (protein) APELLGGPSVFLFPPKPKDTLMISRTPEVTCVVVDVSHEDPEVKFNWYVDGVEVHNAKTKPREEQYNSTYRVVSVLTVLHQDWLNGKEYKCKVSNKALPAPIEKTISKAKGQPREPQVYTLPPSRDELTKNQVSLTCLVKGFYPSDIAVEWFYEAQKLNNYKTTPPVLDSDGSFFLYSKLTVDKSRWQQGNLFACEVMHEALHNHYTYKLLSLSPGK
6,2380 nM,42.8.80 (protein) APELLGGPSVFLFPPKPKDTLMISRTPEVTCVVVDVSHEDPEVKFNWYVDGVEVHNAKTKPREEQYNSTYRVVSVLTVLHQDWLNGKEYKCKVSNKALPAPIEKTISKAKGQPREPQVYTLPPSRDELTKNQVSLTCLVKGFYPSDIAVEWFSEGSKETNYKTTPPVLDSDGSFFLYSKLTVDKSRWQQGNLFACEVMHEALHNHYTYKLLSLSPGK
7,80 nM,42.2.19 (protein) APELLGGPSVFLFPPKPKDTLMISRTPEVTCVVVDVSHEDPEVKFNWYVDGVEVHNAKTKPREEQYNSTYRVVSVLTVLHQDWLNGKEYKCKVSNKALPAPIEKTISKAKGQPREPQVYTLPPSRDELTKNQVSLTCLVKGFYPSDIAVEWFYDDSKLTNYKTTPPVLDSDGSFFLYSKLTVDKSRWQPRGLFACEVMHEALHNHYTYKLLGESPGK
8,650 nM,6.5.11.5.42.2 (TV42.2) (protein) APELLGGPSVFLFPPKPKDTLMISRTPEVTCVVVDVSHEDPEVKFNWYVDGVEVHNAKTKPREEQYNSTYRVVSVLTVLHQDWLNGKEYKCKVSNKALPAPIEKTISKAKGQPREPQVYTLPPSRDELTKNQVSLTCLVKGFYPSDIAVEWFSDGSKETNYKTTPPVLDSDGSFFLYSKLTVDKSRWQQGNLFACEVMHEALHNHYTYKLLSLSPGK

# Molecular target: T1, human TfR apical domain
# Assay: SPR
# Remark: another data set of the same source
row,Kd,Binder
1,450 nM,42.8.143 (protein) APELLGGPSVFLFPPKPKDTLMISRTPEVTCVVVDVSHEDPEVKFNWYVDGVEVHNAKTKPREEQYNSTYRVVSVLTVLHQDWLNGKEYKCKVSNKALPAPIEKTISKAKGQPREPQVYTLPPSRDELTKNQVSLTCLVKGFYPSDIAVEWFYGDSKLTNYKTTPPVLDSDGSFFLYSKLTVDKSRWQQGNLFACEVMHEALHNHYTYKLLSLSPGK
2,650 nM,6.5.11.5.42.2 (TV42.2) (protein) APELLGGPSVFLFPPKPKDTLMISRTPEVTCVVVDVSHEDPEVKFNWYVDGVEVHNAKTKPREEQYNSTYRVVSVLTVLHQDWLNGKEYKCKVSNKALPAPIEKTISKAKGQPREPQVYTLPPSRDELTKNQVSLTCLVKGFYPSDIAVEWFSDGSKETNYKTTPPVLDSDGSFFLYSKLTVDKSRWQQGNLFACEVMHEALHNHYTYKLLSLSPGK
3,100 nM,CH3C.35.23.2 (protein) PCPAPELLGGPSVFLFPPKPKDTLMISRTPEVTCVVVDVSHEDPEVKFNWYVDGVEVHNAKTKPREEQYNSTYRVVSVLTVLHQDWLNGKEYKCKVSNKALPAPIEKTISKAKGQPREPQVYTLPPSRDELTKNQVSLWCLVKGFYPSDIAVEWESYGTEWANYKTTPPVLDSDGSFFLYSKLTVTKEEWQQGFVFSCSVMHEALHNHYTQKSLSLSPGK
4,2500 nM,TV35.d1.10 (protein) PCPAPEAAGGPSVFLFPPKPKDTLMISRTPEVTCVVVDVSHEDPEVKFNWYVDGVEVHNAKTKPREEQYNSTYRVVSVLTVLHQDWLNGKEYKCKVSNKALGAPIEKTISKAKGQPREPQVYTLPPSRDELTKNQVSLWCLVKGFYPSDIAVEWESYGTEWVNYKTTPPVLDSDGSFFLYSKLTVTKSEWQQGFVFSCSVMHEALHNHYTQKSLSLSPGK
5,8000 nM,TV35.d1.9 (protein) PCPAPEAAGGPSVFLFPPKPKDTLMISRTPEVTCVVVDVSHEDPEVKFNWYVDGVEVHNAKTKPREEQYNSTYRVVSVLTVLHQDWLNGKEYKCKVSNKALGAPIEKTISKAKGQPREPQVYTLPPSRDELTKNQVSLWCLVKGFYPSDIAVEWESYGTEWTNYKTTPPVLDSDGSFFLYSKLTVTKSEWQQGFVFSCSVMHEALHNHYTQKSLSLSPGK
6,620 nM,CH3C.35.23.4 (protein) PCPAPELLGGPSVFLFPPKPKDTLMISRTPEVTCVVVDVSHEDPEVKFNWYVDGVEVHNAKTKPREEQYNSTYRVVSVLTVLHQDWLNGKEYKCKVSNKALPAPIEKTISKAKGQPREPQVYTLPPSRDELTKNQVSLWCLVKGFYPSDIAVEWESYGTEWSNYKTTPPVLDSDGSFFLYSKLTVSKEEWQQGFVFSCSVMHEALHNHYTQKSLSLSPGK

# Molecular target: T2, human CD98hc
# Assay: SPR
row,Kd,Binder
1,43 nM,LLB2.10.8.10.3 (protein) APELLGGPSVFLFPPKPKDTLMISRTPEVTCVVVDVSHEDPEVKFNWYVDGVEVHNAKTKPREEQYNSTYRVVSVLTVLHQDWLNGKEYKCKVSNKALPAPIEKTISKAKGQPREPQVYTLPPSRDELTKNQVSLTCLVKGFYPSDIAVLWNSRFVLENNYKTTPPVLDSDGSFFLYSKLTVDKSRWQQGEIFACNVYHEALHNHYTFKNLRLSPGK
2,2100 nM,LLB2-10-8-d12 (protein) APELLGGPSVFLFPPKPKDTLMISRTPEVTCVVVDVSHEDPEVKFNWYVDGVEVHNAKTKPREEQYNSTYRVVSVLTVLHQDWLNGKEYKCKVSNKALPAPIEKTISKAKGQPREPQVYTLPPSRDELTKNQVSLTCLVKGFYPSDIAVLWNSHYELENNYKTTPPVLDSDGSFFLYSKLTVDKSRWQQGNVFACNVYHEALHNHYTFKNLALSPGK
3,170 nM,LLB2-10-8 (protein) APELLGGPSVFLFPPKPKDTLMISRTPEVTCVVVDVSHEDPEVKFNWYVDGVEVHNAKTKPREEQYNSTYRVVSVLTVLHQDWLNGKEYKCKVSNKALPAPIEKTISKAKGQPREPQVYTLPPSRDELTKNQVSLTCLVKGFYPSDIAVLWNSRFVLENNYKTTPPVLDSDGSFFLYSKLTVDKSRWQQGEIFACNVYHEALHNHYTFKNLALSPGK
4,4200 nM,LLB2-10-8.d28 (protein) APELLGGPSVFLFPPKPKDTLMISRTPEVTCVVVDVSHEDPEVKFNWYVDGVEVHNAKTKPREEQYNSTYRVVSVLTVLHQDWLNGKEYKCKVSNKALPAPIEKTISKAKGQPREPQVYTLPPSRDELTKNQVSLTCLVKGFYPSDIAVLWSSRYVLENNYKTTPPVLDSDGSFFLYSKLTVDKSRWQQGNVFACNVYHEALHNHYTFKNLALSPGK
5,20 nM,LLB2.10.8.14.3 (protein) APELLGGPSVFLFPPKPKDTLMISRTPEVTCVVVDVSHEDPEVKFNWYVDGVEVHNAKTKPREEQYNSTYRVVSVLTVLHQDWLNGKEYKCKVSNKALPAPIEKTISKAKGQPREPQVYTLPPSRDELTKNQVSLTCLVKGFYPSDIAVLWNSRFVLENNYKTTPPVLDSDGSFFLYSKLTVDKSRWQQGEIFACNVYHEALHNHRTFKNLRLSPGK
6,610 nM,LLB2-37 (protein) APELLGGPSVFLFPPKPKDTLMISRTPEVTCVVVDVSHEDPEVKFNWYVDGVEVHNAKTKPREEQYNSTYRVVSVLTVLHQDWLNGKEYKCKVSNKALPAPIEKTISKAKGQPREPQVYTLPPSRDELTKNQVSLTCLVKGFYPSDIAVLWNSQFHLENNYKTTPPVLDSDGSFFLYSKLTVDKSRWQQGNIFACNVYHEALHNHYTFKNLLLSPGK
